Assay results from PMC3082519, “Molecular Determinants and Genetic Modifiers of Aggregation and Toxicity for the ALS Disease Protein FUS/TLS”.

Target: GST-FUS (Homo sapiens, UniProt P35637 1-526)
Assay: EMSA; 0.15-5 uM GST-FUS; yeast tRNA 25 ng, heparin added after binding; 10 mM Tris pH 7.5, 75 mM KCl, 4 mM MgCl2, 25 mM phosphocreatine, 1.25 mM ATP, 1.3% polyvinyl alcohol, 25 ng yeast tRNA, 0.8 mg BSA, 1 mM DTT, RNasin, 0.1 mM EDTA, 10% glycerol; 10 ul, 20 min at 30 C; then heparin 0.5 ug/ml; 4.5% native gel
Conditions: protein: recombinant; tags: N-terminal GST, TEV-cleavable (GST-TEV-FUS); label: 32P-UTP; single strand

Sequence of GST-FUS (P35637 whole entry): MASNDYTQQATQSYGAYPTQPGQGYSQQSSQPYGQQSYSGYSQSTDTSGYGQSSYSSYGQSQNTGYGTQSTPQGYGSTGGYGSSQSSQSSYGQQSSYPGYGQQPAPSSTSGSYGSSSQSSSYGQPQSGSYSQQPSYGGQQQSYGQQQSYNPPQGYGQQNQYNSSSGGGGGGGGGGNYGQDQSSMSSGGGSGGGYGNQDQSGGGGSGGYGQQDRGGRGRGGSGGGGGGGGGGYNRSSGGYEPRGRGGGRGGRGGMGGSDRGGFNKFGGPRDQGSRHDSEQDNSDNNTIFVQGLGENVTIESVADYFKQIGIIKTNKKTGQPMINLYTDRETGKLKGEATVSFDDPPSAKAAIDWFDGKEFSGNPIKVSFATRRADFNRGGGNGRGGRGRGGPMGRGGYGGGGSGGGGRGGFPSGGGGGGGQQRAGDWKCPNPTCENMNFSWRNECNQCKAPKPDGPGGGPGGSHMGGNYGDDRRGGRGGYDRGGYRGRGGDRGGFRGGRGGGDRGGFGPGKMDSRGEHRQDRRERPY

B1: FUS RNA probe (GU-repeat) (ssRNA)
RNA: GGGGAAAAUUAAUGUGUGUGUGUGGAAAAUU
- binding result: binds
